Entries after “also recorded” stand apart in the source; their conditions may differ.
Legend:
E. faecium EFSK2 = experiment: ΔPlySs1 OD600 lysis, 1 hr, optimal buffering conditions; type: cell-based, Enterococcus faecium
MRSA strain MW2 = experiment: murine septicemia model, MRSA infection alone; type: in vivo, FVB/NJ mice; details: PlySs2 1 mg
Description: The Rockefeller University's Institutional Animal Care and Use Committee approved all in vivo protocols. A systemic infection model described in Daniel, A. et al., was used to test for the in vivo efficacy of PlySs2 against multiple gram-positive bacteria. Briefly, 4-5 week old female FVB/NJ mice (weight range 15 to 20 g) were obtained from The Jackson Laboratory (Bar Harbor, Me.). After a period of acclimation, mice were injected intraperitoneally (IP) with 0.5 ml of mid log-phase (OD600 0.5) bacteria diluted with 5% hog gastric mucin (Sigma) in saline. Bacterial suspensions contained ˜5×10^5 CFU/ml of MW2, a PVL toxin-encoding MRSA strain, ˜1×10^7 of MGAS5005, an M1 serotype of Streptococcus pyogenes that is virulent in humans and mice (Musser), or a combination of both bacteria simultaneously at the above concentrations for the mix infection experiments. Actual bacterial inoculation titers were calculated by serial dilution and plating to Columbia blood agar plates for each experiment. Mice became bacteremic within one to three hours and contained MRSA and/or S. pyogenes in their organs (including spleen, liver, kidney, and heart/blood) ([50], and unpublished observations). […] The survival rate for each experimental group was monitored every 12 hours for the first 24 hours then every 24 hours up to 10 days post-infection. The data were statistically analyzed by Kaplan Meier Survival curves and a Logrank test performed for 95% confidence intervals using the Prism computer program (GraphPad Software; La Jolla, Calif.).
To determine if the broad lytic activity of PlySs2 could provide in vivo protection from infection with gram-positive pathogens, either alone or as a mixed infection, FVB/NJ mice were intraperitoneally injected with ˜5×10^5 CFU of MRSA strain MW2, ˜1×10^7 of S. pyogenes strain MGAS5005 and/or both bacteria simultaneously at the concentrations above. […] Mice were then monitored for survival over ten days. […]

E. coli = experiment: MIC studies; type: cell-based, Escherichia coli; details: E. coli negative control
Description: The Wiegand, et al. protocol to determine minimum inhibitory concentrations was followed with adjustments detailed below. A final suspension of ≈5×10^5 cells/ml in MHB (or BHI for S. pyogenes) resulted after Sterile-filtered lysin or vehicle was added at the appropriate concentration. These tests were distributed within a 96-well microtiter plate. The MIC's were determined, in this experiment, by detection of pellet formation in the bottom of rounded polysterene plate wells. They were also corroborated colorimetrically with alamarBlue®.

| Molecule | lysis value after 1 hr (treated/untreated OD600 ratio) (E. faecium EFSK2; 6.5 μg/ml) | lysis value after 1 hr (treated/untreated OD600 ratio) (E. faecium EFSK2; 13 μg/ml) | lysis value after 1 hr (treated/untreated OD600 ratio) (E. faecium EFSK2; 30 μg/ml) | lysis value after 1 hr (treated/untreated OD600 ratio) (E. faecium EFSK2; 65 μg/ml) | lysis value after 1 hr (treated/untreated OD600 ratio) (E. faecium EFSK2; 130 μg/ml) | survival over 10 days (mice surviving/total) (MRSA strain MW2; IP 3 h post-infection, ClyS 1 mg) | mice died at forty-eight hours (dead/total) (MRSA strain MW2) | survival over 10 days (MRSA strain MW2; ClyS 1 mg) [%] | minimum inhibitory concentration (MIC) (E. coli) |
| --- | --- | --- | --- | --- | --- | --- | --- | --- | --- |
| ΔPlySs1: truncated PlySs1 lysin, SEQ ID NO:2, N-terminal 254 amino acids: only N-terminal enzymatic and central binding domains (protein, listed as Streptococcus suis) MTINLETSIRWMSDRVGKVSYSMDYRNGPNSYDCSSAVYYALMAGGAISAGWAVNTEYMHDWLIRNGYVLVAENKPFNAQRHDVCILGKRGYSSGAGGHVVIFVDNVNVIHCNYARNGISIDNYNQVHRGMYYYLYRPANQPSISNKSLDQLVKETLAGVHGNGDTRKASLGSQYEAVMAVINGKASASEKSDEELAREVLAGKHGAGEDRKRSLGPRYEPVQAKVNELLKAKEKPSETAKNEPQTVQFKEDGDL | 0.85 | 0.67 | 0.52 | 0.32 | 0.13 | – | – | – | – |
| PlySs2: Streptococcus suis prophage lysin, SEQ ID NO:3; N-terminal CHAP domain and C-terminal SH3-type 5 domain (protein, listed as Streptococcus suis) MTTVNEALNNVRAQVGSGVSVGNGECYALASWYERMISPDATVGLGAGVGWVSGAIGDTISAKNIGSSYNWQANGWTVSTSGPFKAGQIVTLGATPGNPYGHVVIVEAVDGDRLTILEQNYGGKRYPVRNYYSAASYRQQVVHYITPPGTVAQSAPNLAGSRSYRETGTMTVTVDALNVRRAPNTSGEIVAVYKRGESFDYDTVIIDVNGYVWVSYIGGSGKRNYVATGATKDGKRFGNAWGTFK | – | – | – | – | – | 16/18 | 2/18 | 88 | too high to calculate; also recorded: immeasurable |
